Assay results published in the supplement of paper PMC10567573.
± gives the standard deviation.

Assay: protein stability index of a GFP-peptide fusion (GPS, HEK-293T) (PSI 1-6); higher = more stable
Conditions: c terminus: a fixed tail appended
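Note: 24-mer peptide tiles fused after GFP, lentivirally expressed, FACS-sorted into six equal bins by GFP/DsRed ratio, decoded by Illumina sequencing, PSI is the read-weighted mean bin number.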

| Sequence | protein stability index (treatment: DMSO) | protein stability index (treatment: MLN4924 1 uM, 8 h) |
| --- | --- | --- |
| SSEVDELIHKADEVTLSEAGSTAG [PALM] | 5.65 ± 0.15 | 5.58 ± 0.16 |
| SSSSLGNKLQTLSPSHKGIAAPHA [ZC2HC1A] | 3.81 ± 0.22 | 3.97 ± 0.26 |
| SSSTPLEDEEPQEPNRLETGEAGE [RTN2] | 5.51 ± 0.34 | 5.56 ± 0.3 |
| SSTSCLMPSKLFAGLVHVKQCIVA [CRYL1] | 2.44 ± 0.31 | 2.11 ± 0.25 |
| STFSSGPSDKMKWCLRVNPKGLDD [SPOPL] | 2.73 ± 0.5 | 3 ± 0.47 |
| STTEWNDETLYQEFNGLKKMNPKL [CHIT1] | 4.2 ± 0.2 | 4.54 ± 0.2 |
| STVISSMPCLLMELRRDSSESQLA [C18orf25] | 3.02 ± 0.13 | 3.13 ± 0.33 |
| SVMAIERCIGVTKPIFHSTKITSK [PTGFR] | 2.71 ± 0.16 | 2.98 ± 0.49 |
| SVSQDFPGSNLNLLTNNSGTPKDH [ETS2] | 4.8 ± 0.38 | 4.83 ± 0.27 |
| SVTGYSFASDGDSGTCSPLRHSFQ [ADD1] | 3.28 ± 0.25 | 3.11 ± 0.36 |
| SYGPVILVVLVVAVVASSVNSYYS [TOR1AIP2] | 3.57 ± 0.3 | 2.85 ± 0.095 |
| SYKYTSRYVLKAGQTVTIWAANAG [LMNB1] | 2.24 ± 0.25 | 1.87 ± 0.25 |
| SYLLKSGADKEILTTKGEMPVQLT [ANKRD40] | 3.46 ± 0.38 | 3.55 ± 0.19 |
| TACKPVIRVPSVPPVPCVPSVPCT [KRT36] | 3.15 ± 0.28 | 3.27 ± 0.2 |
| TAEKRKRLGELFNPYYDPLQWKSS [CHGB] | 2.54 ± 0.17 | 2.93 ± 0.34 |
| TAIKSIEFARKGSCFLINTADRII [RBBP5] | 2.6 ± 0.22 | 2.75 ± 0.78 |
| TALVTVSSEEFEDKWFRKIKDHFC [C8orf76] | 2.33 ± 0.16 | 2.54 ± 0.25 |
| TARMEMLIEELYAFMPARSQDPKK [CBY2] | 2.66 ± 0.39 | 2.94 ± 0.27 |
| TASKAIIEKEYQPHVIVSTTGPNP [ADD1] | 4.47 ± 0.21 | 4.65 ± 0.16 |
| TATFAVHFMVLSKSGPGDGFFSSA [POMT2] | 2.84 ± 0.36 | 2.93 ± 0.51 |
| TAVGAILAGGLCVGIYATNSAEAC [ACSBG2] | 2.35 ± 0.12 | 2.84 ± 0.75 |
| TCADRDNLTRRFSDLGFEVKCFND [CASP6] | 2.96 ± 0.32 | 3.24 ± 0.21 |
| TDIDLQTIDNDIVSMEIFFKAWLH [M1AP] | 2.39 ± 0.33 | 2.34 ± 0.45 |

| Sequence | protein stability index (treatment: DMSO) | protein stability index (treatment: MLN4924 1 uM, 8 h) |
| --- | --- | --- |
| TDLAQQQGGGNGQQQQAMSFAILR [KCNA4] | 3.96 ± 0.1 | 3.81 ± 0.35 |
| TDLKTLCCEFLEGCIAAENCIGIR [GAN] | 2.35 ± 0.4 | 2.48 ± 0.2 |
| TEDGKLDIWSKSNYQVFQKVTDHA [MED27] | 3.67 ± 0.27 | 3.77 ± 0.42 |
| TEFTRFLCSSPLEAETPPNGPDCG [ATE1] | 4.66 ± 0.086 | 4.52 ± 0.17 |
| TEMIITKAGRRMFPACRVSVTGLD [TBX6] | 2.31 ± 0.3 | 2.2 ± 0.22 |
| TENSALQLQVTEREEVRGRELTGL [LMNB1] | 5.14 ± 0.2 | 5.13 ± 0.28 |
| TEQFTAMRDLYMKNGQGFALVYSI [RAP1B] | 3.25 ± 1 | 2.96 ± 0.5 |
| TFDHEHHTTIVATRHYRPPEVILE [CLK3] | 3.34 ± 0.19 | 3.29 ± 0.17 |
| TGACGEAMAAAEGSSGPAGLTLGR [SEPHS2] | 3.78 ± 0.082 | 3.87 ± 0.055 |
| TGLSGGKRPSQEEDTQSIGPKVQR [CRY1] | 5 ± 0.33 | 5.04 ± 0.23 |
| THRLKDGSTMLIEAAKGGHTSVVC [ANKRD17] | 2.51 ± 0.33 | 2.56 ± 0.33 |
| THSSLSQELQARLQTVTREKEELL [CCDC89] | 4.89 ± 0.35 | 4.68 ± 0.22 |
| TIGNLVPQKTYSVKVLAFTSIGDG [PTPRD] | 2.39 ± 0.16 | 2 ± 0.33 |
| TIPATLLVDHVGSKTFLCIGSSVM [SLC2A12] | 2.69 ± 0.5 | 2.34 ± 0.44 |
| TIQKGSYTFVPWLLSFKRGSALEE [TNFSF13B] | 2.11 ± 0.15 | 2.04 ± 0.22 |
| TKADIGTPSNFQHIGHVGWDPNTG [WASL] | 3.81 ± 0.21 | 3.85 ± 0.18 |
| TLAVTCQLPIDRGGGEGKAMYIDT [RAD51] | 3.14 ± 0.25 | 3.33 ± 0.32 |
| TLLAVGCNDGRIVIWDFLTRGIAK [RBBP5] | 2.65 ± 0.51 | 2.55 ± 0.84 |
| TLSRPPPAQVPREVLKVQTHLENP [TFE3] | 4.3 ± 0.11 | 4.41 ± 0.19 |
| TMELRNYFSLYCLHQETQLIHVYL [SNX8] | 3.41 ± 0.67 | 2.94 ± 0.72 |
| TMKESLTTREIRRQEAIYEMSRGE [NET1] | 4.46 ± 0.26 | 4.68 ± 0.33 |
| TNPDLIIVCAQSSQSLWNRLSVLL [SMG5] | 2.59 ± 0.54 | 2.49 ± 0.64 |
| TPAPPLWIGLFLVATGSQQSLAQP | 2.57 ± 0.23 | 2.94 ± 0.74 |

| Sequence | protein stability index (treatment: DMSO) | protein stability index (treatment: MLN4924 1 uM, 8 h) |
| --- | --- | --- |
| TPPTPAPTSGIVGALMEVMQKRSK [WASL] | 4.55 ± 0.12 | 4.65 ± 0.25 |
| TPSNFQHIGHVGWDPNTGFDLNNL [WASL] | 3.24 ± 0.3 | 3.47 ± 0.4 |
| TPTLKVFMHENLYFTNRKVNSVCW [DCAF4] | 2.26 ± 0.4 | 1.95 ± 0.22 |
| TPVPTITANVTSVPVPPAAAPPPP [BRD3] | 4.92 ± 0.17 | 5.04 ± 0.17 |
| TQHKFICEQCGKCKCGECTAPRTL [SPRY1] | 4 ± 0.22 | 3.87 ± 0.18 |
| TRGDADMYDLPKKEDALLYQSKGY [EMD] | 4.19 ± 0.14 | 4.38 ± 0.15 |
| TRKQAAKKVAPLMAKAIRDYKGRF [ELOA2] | 3.25 ± 0.37 | 3.39 ± 0.36 |
| TRRTLKGHGNKVLCMDWCKDKRRI [GNB5] | 3.02 ± 0.37 | 3.25 ± 0.23 |
| TRTTSFKGTSPSSKYVKLNVGGAL [KCTD10] | 3.01 ± 0.41 | 2.87 ± 0.28 |
| TRYSVAGLSPYSDYEFRVVAVNNI [PTPRD] | 2.51 ± 0.35 | 2.61 ± 0.37 |
| TSASLLNAGLSHTEYQIVTDPGDV [SLC2A12] | 4.42 ± 0.16 | 4.76 ± 0.15 |
| TSCLKKREEMKLKECVSILPRKES [TNFSF13B] | 4.42 ± 0.15 | 4.5 ± 0.15 |
| TSHRRVTDVRGLEEFLSAMQSARG [PLEKHN1] | 3.33 ± 0.31 | 3.42 ± 0.26 |
| TSPALLQGTAEEDHVDLSLSCTLV [CDKN1A] | 3.85 ± 0.13 | 3.85 ± 0.18 |
| TSYKPYLNRDEEIIKQLQKGVQQK [DENND6A] | 3.34 ± 0.25 | 3.27 ± 0.34 |
| TTQSAEVGAAETTLTELRRTVQSL [KRT18] | 4.63 ± 0.22 | 4.55 ± 0.4 |
| TVKMLRTQRPAMVQTEDQYQFSYR [PTPRD] | 2.84 ± 0.37 | 2.97 ± 0.33 |
| TVLKQIAPEYFEKNEPYLEAACND [DENND6A] | 3.09 ± 0.05 | 3.26 ± 0.43 |
| TVNIHRLHVKRSMGWKKACDELEL [ZMYND11] | 2.61 ± 0.32 | 2.77 ± 0.36 |
| TVTSLKTKVGGTNPNGGSFEEVLS [TPD52L1] | 3.811 ± 0.036 | 3.82 ± 0.18 |
| VALGHAYHPEEFVCSQCGKVLEEG [PDLIM7] | 3.93 ± 0.34 | 4.03 ± 0.11 |
| VAVLEQEIKDKDQLVLRTKEAFDT [SASS6] | 4.57 ± 0.21 | 4.67 ± 0.41 |
| VCNKKFKMKHHLTEHMKTHTGLKP [ZBTB22] | 3.18 ± 0.14 | 3.21 ± 0.23 |

| Sequence | protein stability index (treatment: DMSO) | protein stability index (treatment: MLN4924 1 uM, 8 h) |
| --- | --- | --- |
| VCQKLLLDAMNYHLMPFRQHCRQS [KLHL14] | 3 ± 0.47 | 2.99 ± 0.62 |
| VCSVRGGEGRSRGSANDYKDTLGK [KRT71] | 4.68 ± 0.32 | 4.79 ± 0.18 |
| VDNHFNLLTTSPVFPHYIEKPLGR [TRIM43] | 3.05 ± 0.4 | 2.96 ± 0.7 |
| VDNSCDWALGVCNNSWIRKNSTMV [TRIM43] | 2.49 ± 0.34 | 2.5 ± 0.44 |
| VDSKPELQRVLEHRRRNQLIKKKK [FAM107A] | 4.54 ± 0.2 | 4.61 ± 0.39 |
| VEECQAALQNKDTYEPFCKVPVIT [KCTD10] | 4.06 ± 0.15 | 4.12 ± 0.3 |
| VEILMILFAFMLVYPKEFHLNRGN [PPEF2] |  | 3.58 ± 0.62 |
| VEKQADTLNVIELNVQKTVDYTGQ [STX11] | 4.6 ± 0.21 | 4.58 ± 0.15 |
| VERALQLPREPGDSAQFTKALAII [FEM1A] | 3.1 ± 0.051 | 2.8 ± 0.31 |
| VESSLNVKTKKNAPSATIHQGEEE [FBXO34] | 5.37 ± 0.22 | 5.49 ± 0.2 |
| VETSAKNAININELFIEISRRIPS [RAB22A] | 2.34 ± 0.21 | 2.29 ± 0.52 |
| VFDAEGYVKPQSCIDIVIRHVAPI [MOSPD3] | 2.19 ± 0.16 | 2.19 ± 0.51 |
| VFDNAIRAALISRRHLQFWKSHLR [RHOBTB2] | 2.23 ± 0.38 | 2.1 ± 0.3 |
| VFVGNQLIPQPLDSEEDEKMEEDI [PCMTD1] | 4.99 ± 0.2 | 5.07 ± 0.22 |
| VGGGFGGGFGGGDGGLLSGNEKIT [KRT15] | 4.04 ± 0.39 | 4.16 ± 0.14 |
| VGLNTIADLWYLFGDLSLSLVTVG [POMT2] | 3.71 ± 0.08 | 3.16 ± 0.79 |
| VGQSLRIKEQEVCKLQEQLEATVK [SASS6] | 4.15 ± 0.44 | 4.26 ± 0.19 |
| VGTGTFGRVHLVKEKTAKHFFALK [PRKX] | 2.46 ± 0.15 | 2.85 ± 0.17 |
| VHKTKEQFGQDGPISVHCSAGVGR [PTPRD] | 4.02 ± 0.23 | 4.15 ± 0.25 |
| VHRDLKPENLLLASKSKGAAVKLA [CAMK2D] | 3.58 ± 0.77 | 3.42 ± 0.065 |
| VIKDKDDSVDAQNICHVWHMNVEA [RNF180] | 3.98 ± 0.047 | 3.66 ± 0.17 |
